The values that follow are results of earlier work, collected in paper PMC7380111.

What is called Kd is the equilibrium constant for the complex coming apart.

The target in data set [1] is NRP1 (Homo sapiens) (UniProt O14786).
Data set [2] deals with NRP2 (Homo sapiens) (UniProt O60462).
Chain of UniProt O60462 (O60462 21-931): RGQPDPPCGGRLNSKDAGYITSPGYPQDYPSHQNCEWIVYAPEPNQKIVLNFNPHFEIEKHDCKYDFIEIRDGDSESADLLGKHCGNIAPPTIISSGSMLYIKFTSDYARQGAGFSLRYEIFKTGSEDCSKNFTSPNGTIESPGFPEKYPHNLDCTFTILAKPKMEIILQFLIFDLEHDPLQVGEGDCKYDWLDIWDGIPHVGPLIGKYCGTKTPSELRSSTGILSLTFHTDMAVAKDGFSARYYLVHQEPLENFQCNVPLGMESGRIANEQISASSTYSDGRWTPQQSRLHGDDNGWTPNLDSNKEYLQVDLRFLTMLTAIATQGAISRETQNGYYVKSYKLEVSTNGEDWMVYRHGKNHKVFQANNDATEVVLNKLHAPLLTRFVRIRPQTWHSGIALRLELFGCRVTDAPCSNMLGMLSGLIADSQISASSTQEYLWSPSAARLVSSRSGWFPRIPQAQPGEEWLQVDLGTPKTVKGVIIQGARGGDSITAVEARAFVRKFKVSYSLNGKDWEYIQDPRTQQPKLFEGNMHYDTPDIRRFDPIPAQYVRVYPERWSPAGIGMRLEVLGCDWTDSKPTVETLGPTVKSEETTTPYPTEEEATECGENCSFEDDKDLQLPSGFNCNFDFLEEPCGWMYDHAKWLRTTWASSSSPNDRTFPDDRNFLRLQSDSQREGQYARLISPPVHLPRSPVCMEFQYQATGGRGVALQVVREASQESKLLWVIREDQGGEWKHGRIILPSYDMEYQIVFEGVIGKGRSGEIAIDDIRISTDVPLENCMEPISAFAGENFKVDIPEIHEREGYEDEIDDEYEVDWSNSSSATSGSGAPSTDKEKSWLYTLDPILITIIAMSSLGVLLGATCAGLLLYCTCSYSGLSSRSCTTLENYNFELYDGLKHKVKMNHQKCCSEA

Chain of UniProt O14786 (O14786 22-923): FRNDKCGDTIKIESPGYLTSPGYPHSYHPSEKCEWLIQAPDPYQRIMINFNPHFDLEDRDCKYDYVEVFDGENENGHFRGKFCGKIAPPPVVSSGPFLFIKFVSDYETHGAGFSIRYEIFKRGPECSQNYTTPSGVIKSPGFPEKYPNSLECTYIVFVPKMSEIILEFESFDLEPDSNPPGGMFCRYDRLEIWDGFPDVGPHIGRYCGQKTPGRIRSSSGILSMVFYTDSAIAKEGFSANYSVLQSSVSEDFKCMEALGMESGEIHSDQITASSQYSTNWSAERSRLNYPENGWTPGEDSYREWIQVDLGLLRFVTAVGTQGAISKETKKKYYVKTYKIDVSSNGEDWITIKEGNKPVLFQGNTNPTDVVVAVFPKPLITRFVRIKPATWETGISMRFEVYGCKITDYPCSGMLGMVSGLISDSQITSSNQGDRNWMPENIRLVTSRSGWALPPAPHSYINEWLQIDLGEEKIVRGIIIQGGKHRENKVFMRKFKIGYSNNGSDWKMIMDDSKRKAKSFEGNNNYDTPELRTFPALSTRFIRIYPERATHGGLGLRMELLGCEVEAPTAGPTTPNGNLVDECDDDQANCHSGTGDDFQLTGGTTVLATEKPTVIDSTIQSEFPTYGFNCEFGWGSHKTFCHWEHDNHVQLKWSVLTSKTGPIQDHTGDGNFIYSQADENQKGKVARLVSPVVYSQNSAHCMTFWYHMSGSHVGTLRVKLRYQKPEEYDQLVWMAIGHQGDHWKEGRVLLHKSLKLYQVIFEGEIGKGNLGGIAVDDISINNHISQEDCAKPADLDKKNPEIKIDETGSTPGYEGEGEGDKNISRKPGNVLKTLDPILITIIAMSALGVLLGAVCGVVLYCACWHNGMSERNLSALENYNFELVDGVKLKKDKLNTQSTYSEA

As for VEGF165 (from UniProt P15692), the figures for the Kd in data set [1] and in data set [2] were 0.2 nM and 5 nM, respectively.
